Patent US20260008817A1, “CYCLIC PEPTIDE OR SALT THEREOF, AND USES THEREOF” (FUJIFILM Corporation, priority 2023, published 2026)
Positions of bridges follow the written chain, without caps; N, C: chain ends. No end group written: not given here. COCH2 = acetyl group that carries the bridge

target: T1, Recombinant Human FGFR1 alpha (IIIc) Fc Chimera Protein (Homo sapiens, UniProt P11362); experiment: ELISA binding affinity of enzymatically synthesized peptide to FGFR; conditions: ELISA luminescence signal at 10 nmol/L peptide, SEQ ID NO: 239 standardized to 1; enzyme synthesis product
T1 construct: purchased R&D systems 658-FR-050
T1 sequence (P11362 with tags, fused parts or gaps limits assumed): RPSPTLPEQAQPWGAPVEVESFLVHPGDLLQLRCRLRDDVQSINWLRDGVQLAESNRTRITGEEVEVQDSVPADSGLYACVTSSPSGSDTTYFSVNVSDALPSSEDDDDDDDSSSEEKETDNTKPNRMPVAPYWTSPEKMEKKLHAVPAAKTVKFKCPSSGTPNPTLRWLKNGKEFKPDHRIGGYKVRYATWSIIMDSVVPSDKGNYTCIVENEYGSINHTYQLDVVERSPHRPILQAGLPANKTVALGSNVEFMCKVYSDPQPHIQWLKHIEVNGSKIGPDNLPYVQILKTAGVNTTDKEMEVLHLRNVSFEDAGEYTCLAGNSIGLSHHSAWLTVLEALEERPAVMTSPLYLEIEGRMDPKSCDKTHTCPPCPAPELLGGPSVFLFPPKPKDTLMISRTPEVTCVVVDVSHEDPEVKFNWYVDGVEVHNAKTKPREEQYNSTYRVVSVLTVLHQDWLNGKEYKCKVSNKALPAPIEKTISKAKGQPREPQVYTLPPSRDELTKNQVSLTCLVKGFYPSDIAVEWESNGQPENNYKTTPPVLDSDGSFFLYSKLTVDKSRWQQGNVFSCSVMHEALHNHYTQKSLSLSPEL
Method: The binding affinity of the peptide to FGFR was evaluated using an ELISA method.
The peptide used for the evaluation was enzymatically synthesized by the following method.
First, a fusion peptide (SEQ ID NO: 25) in which a translation enhancing sequence (SEQ ID NO: 22), a peptide, a Myc tag (SEQ ID NO: 23), and a HiBiT tag (SEQ ID NO: 24) were linked in this order was designed. Next, a template DNA sequence (SEQ ID NO: 26) was designed in which a T7 promoter sequence, a Shine-Dalgarno sequence, a sequence necessary for transcription and translation initiation, such as a start codon (ATG), was provided on the 5′ terminal side of the DNA sequence encoding the fused peptide, and a stop codon group was provided on the 3′ terminal side thereof. In a case where the triplet TAG codon is included in the template DNA sequence, the above-described codon is assigned to the codon of chloroacetylated lysine, and thus, the peptide encoded by the above-described DNA sequence is a cyclic peptide in which a thiol group of cysteine and a chloroacetyl group of chloroacetylated lysine spontaneously form a thioether bond.
The cell-free enzymatic synthesis of the polypeptide was performed in a translation solution containing a template DNA, PUREfrex 2.0 (GeneFrontier, PF201-0.25-5), and Aminoacyl tRNA (1). 1.75 μL ([…]) of the template DNA prepared to 50 ng/μL, 2.5 μL of PUREfrex 2.0 Solution I, 0.25 μL of Solution II, 0.5 μL of Solution III, and a dried product of Aminoacyl tRNA (1) (final concentration: 0.5 ng/μL) were mixed and mixture was subjected to a reaction at 37° C. for 1 hour.
The concentration of the enzymatically synthesized peptide was measured using the peptide diluted with Can Get Signal Immunoreaction Enhancer Solution I (TOYOBO, NKB-101), Nano-Glo HiBiT Lytic Detection System (Promega, N3040), and a chemical synthetic peptide for a calibration curve having a known concentration (SEQ ID NO: 33) according to the standard protocol of the Nano-Glo HiBiT Lytic Detection System.
The binding affinity of the enzymatically synthesized peptide to FGFR was measured by evaluating the amount of the peptide bound to FGFR by ELISA.
First, 5 ng of Recombinant Human FGFR1 alpha (IIIc) Fc Chimera Protein (R&D systems, 658-FR-050) was immobilized in each well of a 96-well plate, and blocked with Pierce Protein-Free (PBS) Blocking Buffer (Thermo, 37572), and a peptide diluted with Can Get Signal Immunoreaction Enhancer Solution I (TOYOBO, NKB-101) was then added and reacted at room temperature for 3 hours. After washing with 0.05% Tween 20-containing phosphate buffered saline (PBS), an anti-Myc antibody (Cell Signaling, 14038S) diluted with Can Get Signal Immunoreaction Enhancer Solution II (TOYOBO, NKB-101) was added and reacted at room temperature for 2 hours. After washing with 0.05% Tween 20-containing PBS, SuperSignal ELISA Femto Substrate (Thermo, 37075) was added, and the luminescence amount was measured. The dose-response relationship was calculated from using the difference between the luminescence amount in the well in which FGFR was immobilized and the luminescence amount in the well in which FGFR was not immobilized, and the concentration of the peptide at the time of reaction, and the binding affinity to FGFR was evaluated according to the following evaluation criteria. The evaluation result preferably satisfies the evaluation criteria A, B, or C.
In a case where a value of a luminescence signal emitted by the cyclic peptide set forth in SEQ ID NO: 239 at a reaction concentration of 10 nmol/L is standardized to 1, evaluation criteria of the luminescence signal value emitted by the peptide at a reaction concentration of 10 nmol/L is as follows. • A: 0.7 or more • B: 0.5 or more and less than 0.7 • C: 0.1 or more and less than 0.5 • D: less than 0.1.

Row | Substance | Evaluation result of binding affinity to FGFR
1 | 77 (ICVYTWDAHAHSLHAALTK(COCH2)I; thioether 2-19 (inferred)) [compound 77] | B (0.5 or more and less than 0.7)
2 | 78 (ICVYTSDAHAHSLHAALTK(COCH2)I; thioether 2-19 (inferred)) [compound 78] | C (0.1 or more and less than 0.5)
3 | 79 (ICVYTHDAHAHSLHAALTK(COCH2)I; thioether 2-19 (inferred)) [compound 79] | C (0.1 or more and less than 0.5)
4 | 80 (ICVYTFAAHAHSLHAALTK(COCH2)I; thioether 2-19 (inferred)) [compound 80] | C (0.1 or more and less than 0.5)
5 | 81 (ICVYTFGAHAHSLHAALTK(COCH2)I; thioether 2-19 (inferred)) [compound 81] | C (0.1 or more and less than 0.5)
6 | 82 (ICVYTFPAHAHSLHAALTK(COCH2)I; thioether 2-19 (inferred)) [compound 82] | C (0.1 or more and less than 0.5)
7 | 83 (ICVYTFVAHAHSLHAALTK(COCH2)I; thioether 2-19 (inferred)) [compound 83] | C (0.1 or more and less than 0.5)
8 | 84 (ICVYTFFAHAHSLHAALTK(COCH2)I; thioether 2-19 (inferred)) [compound 84] | C (0.1 or more and less than 0.5)
9 | 85 (ICVYTFYAHAHSLHAALTK(COCH2)I; thioether 2-19 (inferred)) [compound 85] | C (0.1 or more and less than 0.5)
10 | 86 (ICVYTFWAHAHSLHAALTK(COCH2)I; thioether 2-19 (inferred)) [compound 86] | C (0.1 or more and less than 0.5)
11 | 87 (ICVYTFNAHAHSLHAALTK(COCH2)I; thioether 2-19 (inferred)) [compound 87] | A (0.7 or more)
12 | 88 (ICVYTFSAHAHSLHAALTK(COCH2)I; thioether 2-19 (inferred)) [compound 88] | C (0.1 or more and less than 0.5)
13 | 89 (ICVYTFDGHAHSLHAALTK(COCH2)I; thioether 2-19 (inferred)) [compound 89] | B (0.5 or more and less than 0.7)
14 | 90 (ICVYTFDPHAHSLHAALTK(COCH2)I; thioether 2-19 (inferred)) [compound 90] | B (0.5 or more and less than 0.7)
15 | 91 (ICVYTFDLHAHSLHAALTK(COCH2)I; thioether 2-19 (inferred)) [compound 91] | C (0.1 or more and less than 0.5)
16 | 92 (ICVYTFDIHAHSLHAALTK(COCH2)I; thioether 2-19 (inferred)) [compound 92] | C (0.1 or more and less than 0.5)
17 | 93 (ICVYTFDVHAHSLHAALTK(COCH2)I; thioether 2-19 (inferred)) [compound 93] | C (0.1 or more and less than 0.5)
18 | 94 (ICVYTFDYHAHSLHAALTK(COCH2)I; thioether 2-19 (inferred)) [compound 94] | C (0.1 or more and less than 0.5)
19 | 95 (ICVYTFDWHAHSLHAALTK(COCH2)I; thioether 2-19 (inferred)) [compound 95] | C (0.1 or more and less than 0.5)
20 | 96 (ICVYTFDNHAHSLHAALTK(COCH2)I; thioether 2-19 (inferred)) [compound 96] | C (0.1 or more and less than 0.5)
21 | 97 (ICVYTFDQHAHSLHAALTK(COCH2)I; thioether 2-19 (inferred)) [compound 97] | A (0.7 or more)

Continued, values first:

Row | Evaluation result of binding affinity to FGFR | Substance
22 | A (0.7 or more) | 98 (ICVYTFDSHAHSLHAALTK(COCH2)I; thioether 2-19 (inferred)) [compound 98]
23 | C (0.1 or more and less than 0.5) | 99 (ICVYTFDTHAHSLHAALTK(COCH2)I; thioether 2-19 (inferred)) [compound 99]
24 | A (0.7 or more) | 100 (ICVYTFDEHAHSLHAALTKI; Description of Artificial Sequence: Cyclic peptide) [compound 100]
25 | A (0.7 or more) | 101 (ICVYTFDRHAHSLHAALTKI; Description of Artificial Sequence: Cyclic peptide) [compound 101]
26 | B (0.5 or more and less than 0.7) | 102 (ICVYTFDHHAHSLHAALTKI; Description of Artificial Sequence: Cyclic peptide) [compound 102]
27 | A (0.7 or more) | 103 (ICVYTFDAAAHSLHAALTKI; Description of Artificial Sequence: Cyclic peptide) [compound 103]
28 | A (0.7 or more) | 104 (ICVYTFDAGAHSLHAALTKI; Description of Artificial Sequence: Cyclic peptide) [compound 104]
29 | A (0.7 or more) | 105 (ICVYTFDALAHSLHAALTKI; Description of Artificial Sequence: Cyclic peptide) [compound 105]
30 | C (0.1 or more and less than 0.5) | 106 (ICVYTFDAIAHSLHAALTKI; Description of Artificial Sequence: Cyclic peptide) [compound 106]
31 | C (0.1 or more and less than 0.5) | 107 (ICVYTFDAVAHSLHAALTKI; Description of Artificial Sequence: Cyclic peptide) [compound 107]
32 | B (0.5 or more and less than 0.7) | 108 (ICVYTFDAFAHSLHAALTKI; Description of Artificial Sequence: Cyclic peptide) [compound 108]
33 | B (0.5 or more and less than 0.7) | 109 (ICVYTFDAYAHSLHAALTKI; Description of Artificial Sequence: Cyclic peptide) [compound 109]
34 | C (0.1 or more and less than 0.5) | 110 (ICVYTFDAWAHSLHAALTKI; Description of Artificial Sequence: Cyclic peptide) [compound 110]
35 | A (0.7 or more) | 111 (ICVYTFDANAHSLHAALTKI; Description of Artificial Sequence: Cyclic peptide) [compound 111]
36 | A (0.7 or more) | 112 (ICVYTFDAQAHSLHAALTKI; Description of Artificial Sequence: Cyclic peptide) [compound 112]
37 | A (0.7 or more) | 113 (ICVYTFDASAHSLHAALTKI; Description of Artificial Sequence: Cyclic peptide) [compound 113]
38 | A (0.7 or more) | 114 (ICVYTFDATAHSLHAALTKI; Description of Artificial Sequence: Cyclic peptide) [compound 114]
39 | A (0.7 or more) | 115 (ICVYTFDADAHSLHAALTKI; Description of Artificial Sequence: Cyclic peptide) [compound 115]
40 | A (0.7 or more) | 116 (ICVYTFDAEAHSLHAALTKI; Description of Artificial Sequence: Cyclic peptide) [compound 116]
